According to publication PMC10801813, “In silico protein interaction screening uncovers DONSON’s role in replication initiation” (Science (New York, N.Y.), 2023):

T1: Recombinant Xenopus GINS (preparation of ref. 54, Sf9 expression) (Xenopus laevis, UniProt Q7ZT47 1-196; Q7ZT46 1-185; Q7ZT01 1-210; Q7ZT48 1-221)
T1 construct: PSF1 subunit of Xenopus GINS; PSF2 subunit of Xenopus GINS; PSF3 subunit of Xenopus GINS; SLD5 subunit of Xenopus GINS; also called purified GINS; source: Sf9 expression, purified; copies: + + +
T1 sequence (looked up) 1: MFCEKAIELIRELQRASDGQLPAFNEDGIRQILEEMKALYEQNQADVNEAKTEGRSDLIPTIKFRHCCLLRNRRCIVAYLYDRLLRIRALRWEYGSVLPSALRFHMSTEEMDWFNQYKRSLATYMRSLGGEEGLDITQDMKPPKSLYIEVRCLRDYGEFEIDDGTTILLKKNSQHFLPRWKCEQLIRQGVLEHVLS
T1 sequence (looked up) 2: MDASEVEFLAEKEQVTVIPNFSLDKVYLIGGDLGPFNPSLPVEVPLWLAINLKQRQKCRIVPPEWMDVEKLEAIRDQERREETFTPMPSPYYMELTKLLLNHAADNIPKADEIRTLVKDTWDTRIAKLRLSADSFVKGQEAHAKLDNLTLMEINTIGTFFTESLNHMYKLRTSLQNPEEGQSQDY
T1 sequence (looked up) 3: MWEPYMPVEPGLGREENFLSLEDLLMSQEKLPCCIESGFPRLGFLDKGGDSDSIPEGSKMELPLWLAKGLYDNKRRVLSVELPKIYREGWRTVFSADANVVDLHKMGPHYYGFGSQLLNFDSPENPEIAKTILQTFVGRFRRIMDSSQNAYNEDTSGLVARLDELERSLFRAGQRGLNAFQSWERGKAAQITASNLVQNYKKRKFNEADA
T1 sequence (looked up) 4: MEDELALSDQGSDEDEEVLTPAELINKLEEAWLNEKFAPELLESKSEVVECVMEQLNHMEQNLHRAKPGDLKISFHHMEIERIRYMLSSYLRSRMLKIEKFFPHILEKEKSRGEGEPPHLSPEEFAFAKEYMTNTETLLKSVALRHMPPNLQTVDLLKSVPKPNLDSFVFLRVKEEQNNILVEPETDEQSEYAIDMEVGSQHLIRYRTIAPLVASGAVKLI


What was measured:
[1] = target: the molecule itself; assay: mass photometry; Refeyn TwoMP; FLAG-DONSON diluted to 200 nM in egg lysis buffer (10 mM HEPES-KOH pH 7.7, 50 mM KCl, 2.5 mM MgCl2, 250 mM sucrose), 2 μL mixed into an 18 μL droplet of PBS
[2] = target: T1, Recombinant Xenopus GINS (preparation …); assay: co-IP; purified FLAG-DONSON, GINS and TOPBP1^1−530 mixed, each 0.5 μM in IP wash buffer, 15 min room temperature; anti-FLAG beads 30 min room temperature; immunoblot (fig. S11B, lanes 22 to 24); conditions: both partners purified

binding result [2] | Binder | stoichiometry N [1]
binds | Recombinant FLAG-tagged DONSON, wild type (natural protein, Xenopus laevis, UniProt Q5U4U4 1-579, looked up, Xenopus DONSON (Downstream Neighbor of SON); also called rFLAG-DONSON; FLAG-DONSON; source: E. coli Rosetta (DE3) pLysS, purified (Glutathione Sepharose, PreScission cleavage, Superdex 200); not shown: GST, N-terminal, cleaved) MAELLPGYSPSFKKPSEILRLSRRRSRSEASKTGLSPFSPGDVIKRVPGLRPFSPGPNKGAGVKRRNPFASLENTVCSPVKRRAETVAEYGAASLEPRALSAVRPSCLGQDSPEPPQFNSVEDVIWGDPLAADADPLVKTESPEKPAPACEIPKGSVTFPADWSLKTRLLFTSSHSFSWADHLKAQEEAQGLVMQCRATAVNLPHSIQEPKLSTDLRCAFQQSLVHWIHPSLPWVQLFPRIGVDRKMAGKNTPWSQDESLQQVLMSEWALSFTSLYNLLKAKLCPYFYVCTYQFTVLFRAAGLAGSDVITAVMSPTTRGLREAMKNEGITFSQPLVEDDTGKKQKKPEAASQGDINPEKENGTAEADEASDESDEDESFSWLEEMGVEDKIKKPDSISIKLRKEKNEVKLDHKPESVVLVKGTNTFTLLNFLINCKSIVAAAGLQAGLPPTLLSPVAFRGATMHALKARSVNVKTRVNSGYKDQFSLEITGPIMPHSLHSLTMLLQSAQRGSFSAGLYTHEPTAVFNTPIHSQAVKEISADLQNCGLHPCTVEQLTQVNELGKLSLRHLEMTDYRYTWK | 2
binds | Recombinant FLAG-tagged DONSON N430A (natural protein, Xenopus laevis, UniProt Q5U4U4 1-579, looked up, Xenopus DONSON with N430A; source: E. coli Rosetta (DE3) pLysS, purified (Glutathione Sepharose, PreScission cleavage, Superdex 200); not shown: GST, N-terminal, cleaved) MAELLPGYSPSFKKPSEILRLSRRRSRSEASKTGLSPFSPGDVIKRVPGLRPFSPGPNKGAGVKRRNPFASLENTVCSPVKRRAETVAEYGAASLEPRALSAVRPSCLGQDSPEPPQFNSVEDVIWGDPLAADADPLVKTESPEKPAPACEIPKGSVTFPADWSLKTRLLFTSSHSFSWADHLKAQEEAQGLVMQCRATAVNLPHSIQEPKLSTDLRCAFQQSLVHWIHPSLPWVQLFPRIGVDRKMAGKNTPWSQDESLQQVLMSEWALSFTSLYNLLKAKLCPYFYVCTYQFTVLFRAAGLAGSDVITAVMSPTTRGLREAMKNEGITFSQPLVEDDTGKKQKKPEAASQGDINPEKENGTAEADEASDESDEDESFSWLEEMGVEDKIKKPDSISIKLRKEKNEVKLDHKPESVVLVKGTNTFTLLAFLINCKSIVAAAGLQAGLPPTLLSPVAFRGATMHALKARSVNVKTRVNSGYKDQFSLEITGPIMPHSLHSLTMLLQSAQRGSFSAGLYTHEPTAVFNTPIHSQAVKEISADLQNCGLHPCTVEQLTQVNELGKLSLRHLEMTDYRYTWK | 
